Assay results reported in the supplement of paper PMC12042874.
± gives the uncertainty stated by the source.

Test: amyloid nucleation score (Sup35N fusion, yeast selection) (log enrichment); library NNK2; higher = more nucleation; inactive = no reads after selection
Outline: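 Yeast lacking psi expressed peptides of 20 random codons fused to Sup35N, received 100 μM copper sulfate for 24 hours, and were then grown for 7 days at 30°C on medium lacking adenine and uracil. Illumina sequencing of input and output plasmid inserts provided the reads. Nucleation scores are DiMSum log enrichments of output over input, centred on the mode of non-aggregating sequences. Any sequence with under 100 input reads was excluded.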

Substance | amyloid nucleation score
AFASYIKNDPPGEVPMAEL | 0.258 ± 0.24
AFCAGVQAPEFPNLA | 0.437 ± 0.65
AFDIFFNVVWRPFVHSCLAR | 0.041 ± 0.56
AFKKYQS | -0.114 ± 0.74
AFLLLRSMYW | 6.933 ± 0.026
AFLVYRKNNIPQYRVKVVDM | -0.225 ± 0.63
AFRGSYLKFSESTCTIGSLW | 2.12 ± 0.13
AFRPVSSIGLCRWYMKRWNS | 0.542 ± 0.19
AFTWLY | 0.942 ± 0.26
AGANLLSLCSFKHAECYFSN | 6.31 ± 0.071
AGCVVNHTPRLLGRSTKRLK | 3.1 ± 0.062
AGFSSDGLQVMIIYD | 0.379 ± 0.31
AGGEEIGGVSRS | -1.07 ± 0.49
AGVWHSSLFITIQGVLNFGY | 6.017 ± 0.02
AGWQCLCSLFLLKEITTCIS | -0.367 ± 0.56
AGYLNRNHLLRMLYWCSCFG | inactive
AHHRCHWYECVMMPRHGPRP | 1.26 ± 0.33
AHSATINA | -0.113 ± 0.44
AIEYPYRCYRDVAWLRALAS | 0.582 ± 0.28
AIFGFTVVLVMFMRFLQDTC | 0.732 ± 0.22
AIFYDLMVNQRFVFTSFLWL | -0.14 ± 0.74
AINGHDRGLSKLGGRAGESD | 0.589 ± 0.42

Substance | amyloid nucleation score
AISCSVTWNVTMTSGLTPLC | 1.17 ± 0.37
AISSEGELLAVDFWNSNLDP | -0.509 ± 0.23
AISSRLILLTPRAKSFVPSD | -0.247 ± 0.65
AKDEERISNVVGLDCDLGVL | 0.057 ± 0.42
AKVVHTVWACIAS | -0.943 ± 0.78
AKYIPHAVLKASPTVGIILV | -0.54 ± 1.1
ALCQYISSSYMWYSVMCELI | inactive
ALCYWRNSPSVGRRQWRRQC | 6.654 ± 0.057
ALDHSV | -0.271 ± 1
ALDWPLICA | -0.07 ± 0.39
ALECGRTMEINLTGR | 0.942 ± 0.37
ALGHR | -0.079 ± 0.45
ALGINFSWACG | 4.998 ± 0.043
ALHFPVIQHFW | 5.22 ± 0.073
ALLTVFFNLVVVWDVKAVTP | -0.159 ± 1
ALLYYTAVVDKNYTSDLSHD | -0.899 ± 0.37
ALNAG | 1.11 ± 0.2
ALPITQNCC | -1.07 ± 0.44
ALSSKMMGYDRF | -0.494 ± 0.64
ANAKIYGNMEALETGMRL | 0.553 ± 0.57
ANDPCGVKASRLYVLVSPRV | 0.707 ± 0.19
ANDSSNYEYVILMRPNVIEV | -0.14 ± 0.49

Substance | amyloid nucleation score
ANERCGTLTMRSEAYHVRTW | 0.808 ± 0.28
ANFCVDCIDIAH | 0.787 ± 0.45
ANKLLESCFSQCLRSALFEW | -0.369 ± 0.79
ANLWNEGFPLNGLHDNGIDQ | -0.379 ± 0.49
ANMTVVGWFCIRR | 6.146 ± 0.058
ANNFCRINESDWVRSVILPS | 0.042 ± 1.1
ANPFKSSDATVLVDVRGMGS | 3.09 ± 0.068
ANRFSALFGPLLRVAPPKNS | 1.18 ± 0.24
APADH | 2.52 ± 0.15
APENGFRFWLVNHNAVHMIL | -0.21 ± 0.79
APRCALQLGS | 1.27 ± 0.28
APWYIL | 0.225 ± 0.36
AQLVGVCFRRFCQLSTSLCY | -1.18 ± 0.64
AQNKNWQSFRMFPVVLAMVG | 0.178 ± 0.77
AQVEFLYNSLVHYFSIDNTG | inactive
ARDCYEDDHKSKSARTVEHT | 0.232 ± 0.31
ARFSVILNSIYRFSYLCRRL | inactive
ARKKALGGNNLEVVLFLFSC | 4.93 ± 0.098
ARLAPRSLPCKWSPVAEKQR | -0.098 ± 0.79
ARLRC | 0.001 ± 0.28
ARMIVCPTVFAIPWYNNSFI | -1.47 ± 0.78
ARPVDMHTQTYALL | -0.284 ± 1.1

Substance | amyloid nucleation score
ARRCSFWYIISVQRF | inactive
ARRIVMWVYECGTYCWRRTT | 0.216 ± 0.43
ARSTAFMPEPSFLV | 0.054 ± 0.56
ARTICTFRHMSGIGAMGLDC | 0.289 ± 0.8
ARVCPCETTSTTVVA | 1.23 ± 0.48
ASAPEYHQVKIYIFQFTPRA | 2.02 ± 0.094
ASCMS | -0.056 ± 0.32
ASCWTVGQLTHVSVSMWGFI | 0.943 ± 0.53
ASGEVMYVNHYVFPQAFTDE | inactive
ASLALYRITRVGICYIRRLR | -0.839 ± 0.78
ASMLWLLLDELLKWNDGVNN | 2.04 ± 0.099
ASQAHSEIMLVVTMNALHQP | 7.57 ± 0.076
ASRWHLIAESLSLSAVLNSF | inactive
ASVLWHFLPSGGARFVCSER | 0.538 ± 0.5
ATSTITNYGLPNRPCVSYMF | -0.043 ± 0.32
ATTVNK | 5.76 ± 0.061
ATTYAYTGAQLTWFRWMVVQ | 0.832 ± 0.31
ATVYMLHALVSDGCQLGD | 0.399 ± 0.31
ATYFWMQSVP | 0.903 ± 0.74
AVINPPKHVVCCFD | -0.189 ± 0.23
